Results reported in IntAct's records for PubMed 21346797.

B1: Response regulator aspartate phosphatase H (Bacillus subtilis), Q59HN8 (parent)
chain: MSQAIPSSRVGVKINEWYKMIRQFSVPDAEILKAEVEQDIQQMEEDQDLLIYYSLMCFRHQLMLDYLEPGKTYGNRPTVTELLETIETPQKKLTGLLKYYSLFFRGMYEFDQKEYVEAIGYYREAEKELPFVSDDIEKAEFHFKVAEAYYHMKQTHVSMYHILQALDIYQNHPLYSIRTIQSLFVIAGNYDDFKHYDKALPHLEAALELAMDIQNDRFIAISLLNIANSYDRSGDDQMAVEHFQKAAKVSREKVPDLLPKVLFGLSWTLCKAGQTQKAFQFIEEGLDHITARSHKFYKELFLFLQAVYKETVDERKIHDLLSYFEKKNLHAYIEACARSAAAVFESSCHFEQAAAFYRKVLKAQEDILKGECLYAY
partner: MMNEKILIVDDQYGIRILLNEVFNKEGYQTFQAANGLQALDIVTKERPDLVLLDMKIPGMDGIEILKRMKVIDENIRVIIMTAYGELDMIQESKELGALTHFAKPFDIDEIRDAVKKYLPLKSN

Variants of: B1
Settings: with sp0f_bacsu spo0F

| Variant | effect of a mutation on the interaction |
| --- | --- |
| Y175A | disrupting interaction |
| L50A | disrupting interaction |
| D134A | decreasing interaction |
| F58A | decreasing interaction |

The next lines start with the values.

| effect of a mutation on the interaction | Variant |
| --- | --- |
| disrupting interaction | E137A |
| disrupting interaction | Q47N |
